Results published in PMC2141627.

Target: laminin 5 (α3β3γ2) purified from SCC25 cell culture medium (human (endogenous in SCC25)) (UniProt Q16787)
Experiment: rotary shadowing electron microscopy

## NC-1 domain of type VII collagen purified from human amnion (from UniProt Q02388 17-2944) (domain or fragment)
  stoichiometry N: 1
